{"source": "patent US20160097044A1", "about": "“Antimicrobial Enzyme Fusions Reduce Resistance and Kill Intracellular Staphylococcus aureus” (The United States of America, as Represented by the …, priority 2014, published 2016)", "molecules": {"B1": {"name": "L-K: LysK lytic domains inserted between lysostaphin's M23 endopeptidase domain and SH3b cell wall binding domain; SEQ ID NO:7, protein SEQ ID NO:8 (protein)", "chain": "MAATHEHSAQWLNNYKKGYGYGPYPLGINGGMHYGVDFFMNIGTPVKAISSGKIVEAGWSNYGGGNQIGLIENDGVHRQWYMHLSKYNVKVGDYVKAGQIIGWSGSTGYSTAPHLHFQRMVNSFSNSTAQDPMPFLKSAGYGKAGGTVTPTPNTGLDAKTQAEINKRLDAYAKGTVDSPYRVKKATSYDPSFGVMEAGAIDADGYYHAQCQDLITDYVLWLTDNKVRTWGNAKDQIKQSYGTGFKIHENKPSTVPKKGWIAVFTSGSYEQWGHIGIVYDGGNTSTFTILEQNWNGYANKKPTKRVDNYYGLTHFIEIPVKAGTTVKKETAKKSASKTPAPKKKATLKVSKNHINYTMDKRGKKPEGMVIHNDAGRSSGQQYENSLANAGYARYANGIAHYYGSEGYVWEAIDAKNQIAWHTGDGTGANSGNFRFAGIEVCQSMSASDAQFLKNEQAVFQFTAEKFKEWGLTPNRKTVRLHMEFVPTACPHRSMVLHTGFNPVTQGRPSQAIMNKLKDYFIKQIKNYMDKGTSSSTVVKDGKTSSASLDTVTPTPNTGWKTNKYGTLYKSESASFTPNTDIITRTTGPFRSMPQSGVLKAGQTIHYDEVMKQDGHVWVGYTGNSGQRIYLPVRTWNKSTNTLGVLWGTIKLEHHHHHH", "modifications": "Staphylococcus simulans & Phage K"}, "B2": {"name": "K: 495 amino-acid staphylococcal phage K endolysin LysK, C-terminal His6 tag; SEQ ID NO:3 (protein)", "chain": "MAKTQAEINKRLDAYAKGTVDSPYRVKKATSYDPSFGVMEAGAIDADGYYHAQCQDLITDYVLWLTDNKVRTWGNAKDQIKQSYGTGFKIHENKPSTVPKKGWIAVFTSGSYEQWGHIGIVYDGGNTSTFTILEQNWNGYANKKPTKRVDNYYGLTHFIEIPVKAGTTVKKETAKKSASKTPAPKKKATLKVSKNHINYTMDKRGKKPEGMVIHNDAGRSSGQQYENSLANAGYARYANGIAHYYGSEGYVWEAIDAKNQIAWHTGDGTGANSGNFRFAGIEVCQSMSASDAQFLKNEQAVFQFTAEKFKEWGLTPNRKTVRLHMEFVPTACPHRSMVLHTGFNPVTQGRPSQAIMNKLKDYFIKQIKNYMDKGTSSSTVVKDGKTSSASTPATRPVTGSWKKNQYGTWYKPENATFVNGNQPIVTRIGSPFLNAPVGGNLPAGATIVYDEVCIQAGHIWIGYNAYNGNRVYCPVRTCQGVPPNQIPGVAWGVFKLEHHHHHH", "modifications": "C-terminal His6 tag; Phage K"}}, "key": {"S. aureus SA113 biofilms": {"system": "S. aureus SA113 biofilms", "assay": "Static biofilm reduction model", "format": "cell-based", "conditions": "1 h treatment, compared to buffer treated biofilms", "method": "S. aureus SA113 biofilms were treated for 1 h with 100 μl of each enzyme individually or as equimolar mixtures of LysK and lysostaphin (white bars) in 300 mM NaCl, 50 mM NaH2PO4, 30% glycerol. Constructs are named as in FIG. 1a. Results are reported as the percentage reduction in biofilm compared to buffer treated biofilms. Data presented represents 4 replicates. Values represent means±[…]. Asterisks indicate significant differences (single factor ANOVA with t-test post hoc analysis Sidák correction) as compared to LysK (K) at that concentration. Adjusted alpha p<0.026. Peptidoglycan hydrolase constructs: lysostaphin (L), LysK (K), triple fusion K-L, and triple fusion (L-K), as named in FIG. 1a.\nIn the static biofilm reduction model, biofilms were produced as previously described (Gross et al. 2001. Infect. Immun. 69:3423-3426) with the following modifications. S. aureus strains were grown overnight in 5 ml TSB supplemented with 0.25% D(+)-glucose without shaking at 37° C. The culture was diluted 1/200 in fresh culture medium, and 200 μl was added to each well of a 96 well microtiter plate and incubated without shaking for 24 h at 37° C. Biofilms in the wells were washed twice with 200 μl SLB, treated with […] peptidoglycan hydrolase (Lysostaphin, LysK and the triple fusion proteins K-L and L-K) in SLB at concentrations indicated (FIG. 4) for 1 h at room temperature, and washed twice with 100 μl SLB. Adherent bacteria were fixed with 200 μl 95% ethanol-5% glacial acetic acid for 20 min, washed once with water, and stained with 100 μl 0.4% crystal violet for 15 min at room temperature. Excess stain was removed with 3 water washes. Bound stain was resolubilized in 33% acetic acid, and 20 μl was transferred to a 96 well plate containing 180 μl water. The OD590nm was determined in a Spectra Max plate reader. Percent reduction represents the difference in absorbance between biofilms exposed to buffer only and experimental wells that were exposed to the peptidoglycan hydrolases.\nStatic biofilms were created with S. aureus strain SA113 in 96 well dishes and treated for one hour with 100 μl of the indicated concentrations of each enzyme individually or as an equimolar mixture of LysK and lysostaphin."}, "S. warneri MP06": {"system": "S. warneri MP06", "assay": "Minimum Inhibitory Concentration (MIC) assay", "format": "cell-based, Staphylococcus warneri", "conditions": "Mastitis isolate S. warneri MP06"}, "S. xylosus MP05": {"system": "S. xylosus MP05", "assay": "Minimum Inhibitory Concentration (MIC) assay", "format": "cell-based, Staphylococcus xylosus", "conditions": "Mastitis isolate S. xylosus MP05"}, "S. epidermidis MP04": {"system": "S. epidermidis MP04", "assay": "Minimum Inhibitory Concentration (MIC) assay", "format": "cell-based, Staphylococcus epidermidis", "conditions": "Mastitis isolate S. epidermidis MP04"}, "S. chromogenes MP02": {"system": "S. chromogenes MP02", "assay": "Minimum Inhibitory Concentration (MIC) assay", "format": "cell-based, Staphylococcus chromogenes", "conditions": "Mastitis isolate S. chromogenes MP02"}, "S. aureus strain ALR": {"system": "S. aureus strain ALR", "assay": "Rat nasal colonization model", "format": "in vivo, Wistar rats", "conditions": "for reduction of nasal bacterial load (in words): equimolar concentrations, intranasally twice a day on days 5, 6, 7", "description": "FIGS. 1a-1c depict peptidoglycan hydrolase construct schematics, resistance development and effectiveness in eradicating S. aureus carriage in a rat colonization model. FIG. 1a is a schematic of the peptidoglycan hydrolase constructs. Domains: CHAP endopeptidase (CHAP, red box); N-acetylmuramoyl-L-alanine amidase (AMID, green box); M23 endopeptidase (PEP, blue oval); CBDs (LysK SH3b, gold diamond; lysostaphin SH3b, gold diamond with dot); protein transduction domain (PTD, blue circle); hexahistidine purification tag (His6). Domains are not to scale. Specific peptidoglycan cut sites are illustrated in FIG. 3a. FIG. 1b depicts in vitro antimicrobial resistance development. Engineered triple fusions K-L and L-K suppress antimicrobial resistance development compared to LysK (K), lysostaphin (L), or a combination of equimolar concentrations of both (L+K). Changes in Minimum Inhibitory Concentrations (MIC) are depicted as a fold-change at the tenth round of sublethal exposure compared to the first exposure, with the average fold-change of 4 replicates in red. Error bars=SEM. First exposure MICs: Lysostaphin, 0.77 μg/ml (27 nM); LysK, 47 μg/ml (840 nM); Lysostaphin and LysK (L+K) in combination 0.2 μg/ml (7 nM and 3 nM, respectively); triple fusion K-L, 7 μg/ml (97 nM); triple fusion L-K, 7.8 μg/ml (107 nM). FIG. 1c depicts reduction in colonization in a rat nasal carriage model. Rats were inoculated with S. aureus strain ALR on Day 1. After 5 days, the rats were treated twice daily for 3 days with 20 μl of a 10 mg/ml solution of each enzyme. The rat noses were excised on day 10, homogenized, and quantitative cultures were performed. Each point represents the CFU recovered from an individual rat. Bars indicate the median CFU/nose recovered from treated rats. […] Data were compiled from five independent experiments. Lyso=commercially purchased lysostaphin (AMBI, Tarrytown, N.Y.). Statistical comparisons were made with the Mann-Whitney test. SEQ ID NOs of depicted peptidoglycan hydrolase constructs: Lysostaphin (SEQ ID NO:1); Lysostaphin-PTD1-4, 6-12 (SEQ ID NOs:9, 11, 13, 15, 17, 19, 21, 23, 25, 27, 29, respectively); LysK (SEQ ID NO:3); LysK-PTD1-11 (SEQ ID NOs: 31, 33, 35, 37, 39, 41, 43, 45, 47, 49, 51, respectively); LysK-Lysostaphin Fusion K-L (SEQ ID NO:5); K-L-PTD1-4, 6-11 (SEQ ID NOs:53, 55, 57, 59, 61, 63, 65, 67, 69, 71, respectively); Lysostaphin-LysK Fusion L-K (SEQ ID NO:7).\nReduction in nasal colonization was observed when rats were challenged on day 0 with 10^7 CFU S. aureus strain ALR and then treated twice per day on days 5, 6, and 7 with 10 μl of 2% mupirocin calcium ointment (Bactroban Nasal) or petrolatum/softisan placebo. Noses from rats were homogenized and cultured quantitatively on day 10. Each point represents the CFU recovered from an individual rat, and the data were compiled from two independent experiments. Data were analyzed by the Mann-Whitney test, and horizontal lines represent median values. Mupirocin reduced colonization ˜98% compared to the placebo control.\nThe rat nasal colonization model is an adaptation of the mouse nasal colonization model that we described previously (Schaffer et al. 2006. Infect. Immun. 74:2145-2153). All animal experiments were conducted in accordance with a protocol approved by the appropriate Institutional Animal Care and Use Committees. Wistar rats (5 to 6 wks of age) were obtained from Charles River Laboratories (Wilmington, Mass.) and given food and water ad libitum. The animals were housed two per cage in a modified barrier facility under viral antibody-free conditions. The rats were given drinking water containing streptomycin sulfate (0.5 g/liter; Sigma) 1 day prior to bacterial inoculation and for the course of the experiment. The drinking water and cages were changed three times per week. […]"}}}
{"molecule": "L: 247 amino acid mature (secreted) lysostaphin, staphylolytic bacteriocin, C-terminal His6 tag; SEQ ID NO:1 [reference compound]", "values": [{"measurement": "static biofilm reduction (in words)", "setting": "S. aureus SA113 biofilms", "result": "effectively reduced staphylococcal biofilms"}, {"measurement": "Minimum Inhibitory Conc. (median μg/ml)", "setting": "S. warneri MP06", "result": 1.5, "unit": "µg/mL"}, {"measurement": "Minimum Inhibitory Conc. (median μg/ml)", "setting": "S. xylosus MP05", "result": 0.39, "unit": "µg/mL"}, {"measurement": "Minimum Inhibitory Conc. (median μg/ml)", "setting": "S. epidermidis MP04", "result": 6.2, "unit": "µg/mL"}, {"measurement": "Minimum Inhibitory Conc. (median μg/ml)", "setting": "S. chromogenes MP02", "result": 0.58, "unit": "µg/mL"}]}
{"molecule": "K-L: both LysK lytic domains fused to the N-terminus of lysostaphin; SEQ ID NO:5, protein SEQ ID NO:6", "values": [{"measurement": "static biofilm reduction (in words)", "setting": "S. aureus SA113 biofilms", "result": "effectively reduced staphylococcal biofilms"}, {"measurement": "Minimum Inhibitory Conc. (median μg/ml)", "setting": "S. warneri MP06", "result": 5.3, "unit": "µg/mL"}, {"measurement": "Minimum Inhibitory Conc. (median μg/ml)", "setting": "S. xylosus MP05", "result": 3.5, "unit": "µg/mL"}, {"measurement": "reduction of nasal bacterial load (in words)", "setting": "S. aureus strain ALR", "result": "unable to significantly reduce the bacterial load"}, {"measurement": "Minimum Inhibitory Conc. (median μg/ml)", "setting": "S. epidermidis MP04", "result": 3.5, "unit": "µg/mL"}, {"measurement": "Minimum Inhibitory Conc. (median μg/ml)", "setting": "S. chromogenes MP02", "result": 3.5, "unit": "µg/mL"}]}
{"molecule": "B1", "values": [{"measurement": "static biofilm reduction (in words)", "setting": "S. aureus SA113 biofilms", "result": "effectively reduced staphylococcal biofilms"}, {"measurement": "Minimum Inhibitory Conc. (median μg/ml)", "setting": "S. warneri MP06", "result": 1.5, "unit": "µg/mL"}, {"measurement": "Minimum Inhibitory Conc. (median μg/ml)", "setting": "S. xylosus MP05", "result": 4.0, "unit": "µg/mL"}, {"measurement": "decrease in CFU/nose (nasal colonization) compared to rats treated with buffer", "setting": "S. aureus strain ALR; 200 μg intranasally twice a day on days 5, 6, 7, noses cultured day 10", "result": 98, "unit": "%"}, {"measurement": "bacterial load reduction relative to either parental enzyme", "setting": "S. aureus strain ALR; rat nasal decolonization model", "result": "5-10 fold"}, {"measurement": "Minimum Inhibitory Conc. (median μg/ml)", "setting": "S. epidermidis MP04", "result": 4.2, "unit": "µg/mL"}, {"measurement": "Minimum Inhibitory Conc. (median μg/ml)", "setting": "S. chromogenes MP02", "result": 0.37, "unit": "µg/mL"}]}
{"molecule": "B2", "values": [{"measurement": "static biofilm reduction (in words)", "setting": "S. aureus SA113 biofilms", "result": "effectively reduced staphylococcal biofilms"}, {"measurement": "Minimum Inhibitory Conc. (median μg/ml)", "setting": "S. warneri MP06", "result": 28, "unit": "µg/mL"}, {"measurement": "Minimum Inhibitory Conc. (median μg/ml)", "setting": "S. xylosus MP05", "result": 8.4, "unit": "µg/mL"}, {"measurement": "reduction of nasal bacterial load (in words)", "setting": "S. aureus strain ALR", "result": "unable to significantly reduce the bacterial load"}, {"measurement": "Minimum Inhibitory Conc. (median μg/ml)", "setting": "S. epidermidis MP04", "result": 8.4, "unit": "µg/mL"}, {"measurement": "Minimum Inhibitory Conc. (median μg/ml)", "setting": "S. chromogenes MP02", "result": 16, "unit": "µg/mL"}]}
